Experimental data: the supplement of paper PMC5998384

What was measured:
HeLa Kyoto [1] = assay: solubility in G1/S (NP-40 vs SDS abundance) (log2 ratio); higher = more soluble; details: cell cycle stage: G1/S
HeLa Kyoto [2] = assay: solubility change mitosis vs G1/S (difference of NP-40 vs SDS log2 ratios) (log2 ratio difference); higher = more soluble in mitosis
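Throughout, for solubility change mitosis vs G1/S (difference of NP-40 vs SDS log2 ratios): synchronized HeLa Kyoto cells (double thymidine block for G1/S, nocodazole release for mitosis), protein amounts in NP-40 versus SDS lysates quantified by mass spectrometry, three biological replicates.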
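Throughout, for solubility in G1/S (NP-40 vs SDS abundance): HeLa Kyoto cells arrested at G1/S by double thymidine block, proteins quantified by TMT10plex mass spectrometry in mild NP-40 versus SDS extracts, three biological replicates.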

HOXC10, sequence (chain, as listed by the source): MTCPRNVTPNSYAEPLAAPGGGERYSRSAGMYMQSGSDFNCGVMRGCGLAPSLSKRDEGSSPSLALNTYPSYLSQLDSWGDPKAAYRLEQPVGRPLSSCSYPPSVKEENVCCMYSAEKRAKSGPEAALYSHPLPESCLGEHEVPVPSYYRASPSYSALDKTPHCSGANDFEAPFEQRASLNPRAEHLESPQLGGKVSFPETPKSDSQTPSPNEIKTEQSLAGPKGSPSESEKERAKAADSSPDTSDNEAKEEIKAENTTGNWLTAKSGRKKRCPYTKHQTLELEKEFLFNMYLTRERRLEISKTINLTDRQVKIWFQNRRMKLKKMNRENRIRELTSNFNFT

| Substance | solubility in G1/S (log2) (HeLa Kyoto [1]) | solubility change mitosis (log2) (HeLa Kyoto [2]) |
| --- | --- | --- |
| MAALKEDRSYGLSCGRVSDGSKVSVFHVKLTDSALRAFESYRARQDSVSLRPSIRFQGSQGHISIPQPDCPAEARTFSFYLSNIGRDNPQGSFDCIQQYVSSHGEVHLDCLGSIQDKITVCATDDSYQKARQSMAQAEEETRSRSAIVIKAGGRYLGKKVQFRKPAPGATDAVPSRKRATPINLASAIRKSGASAVSGGSGVSQRPFRDRVLHLLALRPYRKAELLLRLQKDGLTQADKDALDGLLQQVANMSAKDGTCTLQDCMYKDVQKDWPGYSEGDQQLLKRVLVRKLCQPQSTGSLLGDPAASSPPGERGRSASPPQKRLQPPDFIDPLANKKPRISHFTQRAQPAVNGKLGVPNGREALLPTPGPPASTDTLSSSTHLPPRLEPPRAHDPLADVSNDLGHSGRDCEHGEAAAPAPTVRLGLPLLTDCAQPSRPHGSPSRSKPKKKSKKHKDKERAAEDKPRAQLPDCAPATHATPGAPADTPGLNGTCSVSSVPTSTSETPDYLLKYAAISSSEQRQSYKNDFNAEYSEYRDLHARIERITRRFTQLDAQLRQLSQGSEEYETTRGQILQEYRKIKKTNTNYSQEKHRCEYLHSKLAHIKRLIAEYDQRQLQAWP | -0.0524 | 0.218 |
| MTTRQATKDPLLRGVSPTPSKIPVRSQKRTPFPTVTSCAVDQENQDPRRWVQKPPLNIQRPLVDSAGPRPKARHQAETSQRLVGISQPRNPLEELRPSPRGQNVGPGPPAQTEAPGTIEFVADPAALATILSGEGVKSCHLGRQPSLAKRVLVRGSQGGTTQRVQGVRASAYLAPRTPTHRLDPARASCFSRLEGPGPRGRTLCPQRLQALISPSGPSFHPSTRPSFQELRRETAGSSRTSVSQASGLLLETPVQPAFSLPKGEREVVTHSDEGGVASLGLAQRVPLRENREMSHTRDSHDSHLMPSPAPVAQPLPGHVVPCPSPFGRAQRVPSPGPPTLTSYSVLRRLTVQPKTRFTPMPSTPRVQQAQWLRGVSPQSCSEDPALPWEQVAVRLFDQESCIRSLEGSGKPPVATPSGPHSNRTPSLQEVKIQRIGILQQLLRQEVEGLVGGQCVPLNGGSSLDMVELQPLLTEISRTLNATEHNSGTSHLPGLLKHSGLPKPCLPEECGEPQPCPPAEPGPPEAFCRSEPEIPEPSLQEQLEVPEPYPPAEPRPLESCCRSEPEIPESSRQEQLEVPEPCPPAEPRPLESYCRIEPEIPESSRQEQLEVPEPCPPAEPGPLQPSTQGQSGPPGPCPRVELGASEPCTLEHRSLESSLPPCCSQWAPATTSLIFSSQHPLCASPPICSLQSLRPPAGQAGLSNLAPRTLALRERLKSCLTAIHCFHEARLDDECAFYTSRAPPSGPTRVCTNPVATLLEWQDALCFIPVGSAAPQGSP [TROAP] | 0.0401 | 0.651 |
| HOXC10 | 0.535 | -0.0635 |
| MSSPPEGKLETKAGHPPAVKAGGMRIVQKHPHTGDTKEEKDKDDQEWESPSPPKPTVFISGVIARGDKDFPPAAAQVAHQKPHASMDKHPSPRTQHIQQPRK [DAP] | -0.1 | 0.309 |
| MFPVFPCTLLAPPFPVLGLDSRGVGGLMNSFPPPQGHAQNPLQVGAELQSRFFASQGCAQSPFQAAPAPPPTPQAPAAEPLQVDLLPVLAAAQESAAAAAAAAAAAAAVAAAPPAPAAASTVDTAALKQPPAPPPPPPPVSAPAAEAAPPASAATIAAAAATAVVAPTSTVAVAPVASALEKKTKSKGPYICALCAKEFKNGYNLRRHEAIHTGAKAGRVPSGAMKMPTMVPLSLLSVPQLSGAGGGGGEAGAGGGAAAVAAGGVVTTTASGKRIRKNHACEMCGKAFRDVYHLNRHKLSHSDEKPYQCPVCQQRFKRKDRMSYHVRSHDGAVHKPYNCSHCGKSFSRPDHLNSHVRQVHSTERPFKCEKCEAAFATKDRLRAHTVRHEEKVPCHVCGKMLSSAYISDHMKVHSQGPHHVCELCNKGTGEVCPMAAAAAAAAAAAAAAVAAPPTAVGSLSGAEGVPVSSQPLPSQPW [MAZ] | 0.0657 | 0.19 |
| MDGTEGSAGQPGPAERSHRSSVSSVGARAADVLVYLADDTVVPLAVENLPSLSAHELHRAVREVLQLPDIALDVFALWLVSPLLEVQLKPKHQPYKLGRQWPELLLRFTSAPDDDVAMDEPFLQFRRNVFFPKRRELQIHDEEVLRLLYEEAKGNVLAARYPCDVEDCEALGALVCRVQLGPYQPGRPAACDLREKLDSFLPAHLCKRGQSLFAALRGRGARAGPGEQGLLNAYRQVQEVSSDGGCEAALGTHYRAYLLKCHELPFYGCAFFHGEVDKPAQGFLHRGGRKPVSVAISLEGVHVIDSREKHVLLGLRFQELSWDHTSPEEEEPILWLEFDGDSEGTPVNKLLKIYSKQAELMSSLIEYCIELSQAAEPAGPQDSATGSPSDPSSSLAPVQRPKLRRQGSVVSSRIQHLSTIDYVEDGKGIRRVKPKRTTSFFSRQLSLGQGSYTVVQPGDSLEQG [FRMD8] | 0.248 | -0.0705 |
| MSSESKEQHNVSPRDSAEGNDSYPSGIHLELQRESSTDFKQFETNDQCRPYHRILIERQEKSDTNFKEFVIKKLQKNCQCSPAKAKNMILGFLPVLQWLPKYDLKKNILGDVMSGLIVGILLVPQSIAYSLLAGQEPVYGLYTSFFASIIYFLLGTSRHISVGIFGVLCLMIGETVDRELQKAGYDNAHSAPSLGMVSNGSTLLNHTSDRICDKSCYAIMVGSTVTFIAGVYQVAMGFFQVGFVSVYLSDALLSGFVTGASFTILTSQAKYLLGLNLPRTNGVGSLITTWIHVFRNIHKTNLCDLITSLLCLLVLLPTKELNEHFKSKLKAPIPIELVVVVAATLASHFGKLHENYNSSIAGHIPTGFMPPKVPEWNLIPSVAVDAIAISIIGFAITVSLSEMFAKKHGYTVKANQEMYAIGFCNIIPSFFHCFTTSAALAKTLVKESTGCHTQLSGVVTALVLLLVLLVIAPLFYSLQKSVLGVITIVNLRGALRKFRDLPKMWSISRMDTVIWFVTMLSSALLSTEIGLLVGVCFSIFCVILRTQKPKSSLLGLVEESEVFESVSAYKNLQIKPGIKIFRFVAPLYYINKECFKSALYKQTVNPILIKVAWKKAAKRKIKEKVVTLGGIQDEMSVQLSHDPLELHTIVIDCSAIQFLDTAGIHTLKEVRRDYEAIGIQVLLAQCNPTVRDSLTNGEYCKKEEENLLFYSVYEAMAFAEVSKNQKGVCVPNGLSLSSD [SLC26A2] | -0.0844 | -0.0606 |
| MVTNKMTAAFRNPSGKQVATDKVAEKLSSTLSWVKNTVSHTVSQMASQVASPSTSLHTTSSSTTLSTPALSPSSPSQLSPDDLELLAKLEEQNRLLETDSKSLRSVNGSRRNSGSSLVSSSSASSNLSHLEEDSWILWGRIVNEWEDVRKKKEKQVKELVHKGIPHHFRAIVWQLLCSAQSMPIKDQYSELLKMTSPCEKLIRRDIARTYPEHNFFKEKDSLGQEVLFNVMKAYSLVDREVGYCQGSAFIVGLLLMQMPEEEAFCVFVKLMQDYRLRELFKPSMAELGLCMYQFECMIQEHLPELFVHFQSQSFHTSMYASSWFLTIFLTTFPLPIATRIFDIFMSEGLEIVFRVGLALLQMNQAELMQLDMEGMLQHFQKVIPHQFDGVPDKLIQAAYQVKYNSKKMKKLEKEYTTIKTKEMEEQVEIKRLRTENRLLKQRIETLEKHKCSSNYNEDFVLQLEKELVQARLSEAESQCALKEMQDKVLDIEKRNNSLPDENNIARLQEELIAVKLREAEAIMGLKELRQQVKDLEEHWQRHLARTTGRWKDPPKKNAMNELQDELMTIRLREAETQAEIREIKQRMMEMETQNQINSNHLRRAEQEVISLQEKVQYLSAQNKGLLTQLSEAKRKQAEIECKNKEEVMAVRLREADSIAAVAELRQHIAELEIQKEEGKLQGQLNKSDSNQYIGELKDQIAELNHELRCLKGQRGFSGQPPFDGIHIVNHLIGDDESFHSSDEDFIDNSLQETGVGFPLHGKSGSMSLDPAVADGSESETEDSVLETRESNQVVQKERPPRRRESYSTTV [EVI5] | 0.129 | -0.288 |
| MAEPVQEELSVLAAIFCRPHEWEVLSRSETDGTVFRIHTKAEGFMDVDIPLELVFHLPVNYPSCLPGISINSEQLTRAQCVTVKENLLEQAESLLSEPMVHELVLWIQQNLRHILSQPETGSGSEKCTFSTSTTMDDGLWITLLHLDHMRAKTKYVKIVEKWASDLRLTGRLMFMGKIILILLQGDRNNLKEYLILQKTSKVDVDSSGKKCKEKMISVLFETKVQTEHKRFLAFEVKEYSALDELQKEFETAGLKKLFSEFVLALVK [RWDD3] | 0.101 | -0.0953 |
